The target of the experiment is type I IFN-β receptor (human (endogenous in A549 and Daudi)) (UniProt P48551).
Chain of UniProt P48551 (P48551 27-515): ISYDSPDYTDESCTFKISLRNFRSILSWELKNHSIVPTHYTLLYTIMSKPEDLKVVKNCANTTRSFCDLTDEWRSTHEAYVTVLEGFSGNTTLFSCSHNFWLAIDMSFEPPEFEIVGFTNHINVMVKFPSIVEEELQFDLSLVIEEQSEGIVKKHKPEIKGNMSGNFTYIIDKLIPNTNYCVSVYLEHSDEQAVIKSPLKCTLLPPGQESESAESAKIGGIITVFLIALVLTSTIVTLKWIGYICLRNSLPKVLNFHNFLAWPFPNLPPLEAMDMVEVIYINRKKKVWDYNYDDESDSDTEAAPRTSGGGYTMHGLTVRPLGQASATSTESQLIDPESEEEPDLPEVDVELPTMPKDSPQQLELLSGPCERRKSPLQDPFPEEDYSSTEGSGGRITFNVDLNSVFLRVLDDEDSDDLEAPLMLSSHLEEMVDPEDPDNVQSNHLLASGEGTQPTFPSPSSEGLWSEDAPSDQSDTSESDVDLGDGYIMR

With “R27T (rhIFN-β mutein with N-glycosylation at the 25th and 80th amino acid) (from UniProt P01574 22-187) (ligand)”, the 50% response in a FACS assay of IFN-inducible expression of MHC class I on the surface of A549 cells is 265 pg/mL; the IC50 in the antiproliferative assay (Daudi cells, 48 hr) was 0.014 ng/mL; the in vitro anti-viral activity (protection of A549 cells against the cytopathic effect of EMCV), average of three lots came to 2.99e+08 IU/mg.
Substance “R27TΔGlyc (from UniProt P01574 22-187) (ligand)” showed a 50% response in a FACS assay of IFN-inducible expression of MHC class I on the surface of A549 cells of 359 pg/mL; an IC50 in the antiproliferative assay (Daudi cells, 48 hr) of 0.022 ng/mL; an in vitro anti-viral activity (protection of A549 cells against the cytopathic effect of EMCV), average of two lots of 2.52e+08 IU/mg.
As for “Rebif (recombinant human interferon-β 1a) (from UniProt P01574 22-187) (ligand)”, the 50% response in a FACS assay of IFN-inducible expression of MHC class I on the surface of A549 cells was 238 pg/mL; the IC50 in the antiproliferative assay (Daudi cells, 48 hr) amounted to 0.029 ng/mL; the in vitro anti-viral activity (protection of A549 cells against the cytopathic effect of EMCV) was 2.88e+08 IU/mg.

(Values after PMC4032242.)
